In patent US20030114379A1:

Target: CCR1 (human) (UniProt P32246)
Test: cell-based or functional assay

Chain of CCR1 (human) (P32246 whole entry): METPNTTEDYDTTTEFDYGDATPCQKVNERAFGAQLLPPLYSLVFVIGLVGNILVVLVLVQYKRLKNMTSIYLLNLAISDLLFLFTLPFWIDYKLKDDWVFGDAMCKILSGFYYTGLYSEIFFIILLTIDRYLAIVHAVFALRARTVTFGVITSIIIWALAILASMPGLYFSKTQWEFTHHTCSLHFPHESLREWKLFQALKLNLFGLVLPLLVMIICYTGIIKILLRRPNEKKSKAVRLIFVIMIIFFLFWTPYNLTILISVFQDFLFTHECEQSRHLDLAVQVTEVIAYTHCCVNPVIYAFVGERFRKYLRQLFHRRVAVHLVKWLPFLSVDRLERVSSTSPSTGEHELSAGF

MPIF-1 wild type (mature MPIF-1 secreted from a baculovirus expression system) (from UniProt P55773 22-120) (ligand)
Ca2+ mobilization (ng/mL): minimum concentration required to mobilize calcium in human monocytes and/or THP-1 cells; MPIF-1/HG00300-B5: 1000 ng/mL
